In patent publication US11278600B2, “Human alpha-galactosidase variants” (Codexis, Inc., priority 2014, dated 2022):
Where a chain is given by its changes, count along the chain named.

B1: 451 (protein)
chain: LDNGLARTPTMGWLHWERFMCNLDCQEEPDSCISEKLFMEMAERMVSEGWKDAGYEYLCIDDCWMAPQRDSEGRLQADPQRFPHGIRQLANYVHSKGLKLGIYADVGNKTCAGFPGSFGYYDIDAQTFADWGVDLLKFDGCYCDSLENLADGYKHMSLALNRTGRSIVYSCEWPLYMWPFQKPNYTEIRQYCNHWRNFADIDDSWKSIKSILDWTSRNQERIVDVAGPGGWNDPDMLVIGNFGLSWDQQVTQMALWAIVAAPLFMSNDLRHISPQAKALLQDKDVIAINQDPLGKQGYQLRKGDNFEVWERPLSGDAWAVAIINRQEIGGPRSYTIPVASLGKGVACNPACFITQLLPVKRQLGFYNWTSRLKSHINPTGTVLLQLENTMQMSLKDLL
modifications: Synthetic Polypeptide sequence of Variant No. 451 of mature Human GLA
B2: 456 (protein)
chain: B1 chain with V259M, T389M
modifications: Synthetic Polypeptide sequence of Variant No. 456 of mature Human GLA
B3: 455 (protein)
chain: B1 chain with V259M, M392D
modifications: Synthetic Polypeptide sequence of Variant No. 455 of mature Human GLA
B4: 453 (protein)
chain: B1 chain with V259M, R270L
modifications: Synthetic Polypeptide sequence of Variant No. 453 of mature Human GLA
B5: 452 (protein)
chain: B1 chain with V259M, H271R
modifications: Synthetic Polypeptide sequence of Variant No. 452 of mature Human GLA
B6: 454 (protein)
chain: B1 chain with V259M, M390P
modifications: Synthetic Polypeptide sequence of Variant No. 454 of mature Human GLA

Experiment: HTP-analysis of yeast culture supernatants, no challenge (MUGal hydrolysis)
Type: biochemical
Details: activity of the variant/activity of Rd4BB (SEQ ID NO: 15)
Method in brief: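 GLA variants were expressed in INVSc1 yeast grown in SD-Ura broth with glucose at 30° C., and culture supernatants were collected after 66-84 h. Supernatant was mixed with McIlvaine buffer pH 4.8 and MUGal (2 mM stock) in 50 mM citrate, 200 mM KCl, pH 4.6, incubated at 37° C. for 30-180 minutes, then quenched with sodium carbonate.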

Row | Molecule | Relative Activity of GLA Variants After No Challenge (NC)
1 | B1 | + (0.5 to 1.5 relative activity over Rd4BB (SEQ ID NO: 15))
2 | B2 | + (0.5 to 1.5 relative activity over Rd4BB (SEQ ID NO: 15))
3 | B3 | + (0.5 to 1.5 relative activity over Rd4BB (SEQ ID NO: 15))
4 | B4 | + (0.5 to 1.5 relative activity over Rd4BB (SEQ ID NO: 15))
5 | B5 | + (0.5 to 1.5 relative activity over Rd4BB (SEQ ID NO: 15))
6 | B6 | + (0.5 to 1.5 relative activity over Rd4BB (SEQ ID NO: 15))

Experiment: HTP-analysis of supernatants pretreated with acid (MUGal hydrolysis)
Type: biochemical
Details: activity of the variant/activity of Rd4BB (SEQ ID NO: 15); challenge at pH 3.7
Method in brief: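 Yeast INVSc1 supernatant, GLA variants; acid challenge: McIlvaine pH 3.3-4.3, 37° C., 1-3 h. Assay: MUGal in McIlvaine pH 4.8 plus citrate pH 4.3, 37° C., 30-180 min, Na2CO3 stop, Ex 355/Em 448 nm.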

Row | Molecule | Relative Activity of GLA Variants After Challenge at pH 3.7
7 | B1 | ++ (>1.5 to 2.5 relative activity over Rd4BB (SEQ ID NO: 15))
8 | B2 | + (0.5 to 1.5 relative activity over Rd4BB (SEQ ID NO: 15))
9 | B3 | + (0.5 to 1.5 relative activity over Rd4BB (SEQ ID NO: 15))
10 | B4 | − (<0.5 relative activity over Rd4BB (SEQ ID NO: 15))
11 | B5 | ++ (>1.5 to 2.5 relative activity over Rd4BB (SEQ ID NO: 15))
12 | B6 | ++ (>1.5 to 2.5 relative activity over Rd4BB (SEQ ID NO: 15))

Experiment: HTP-analysis of supernatants pretreated with base (MUGal hydrolysis)
Type: biochemical
Details: activity of the variant/activity of Rd4BB (SEQ ID NO: 15); challenge at pH 9.65
Method in brief: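 GLA variants secreted from yeast INVSc1; culture supernatants pre-incubated with McIlvaine buffer pH 7.0–8.2 or 200 mM bicarbonate pH 9.1–9.7 at 37° C. for 1–18 h. Residual activity: MUGal (4 mM stock) hydrolysis at pH 4.3–4.8, 37° C., 30–180 min, carbonate quench; fluorescence Ex 355/Em 448 nm.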

Row | Molecule | Relative Activity of GLA Variants After Challenge at pH 9.65
13 | B1 | − (<0.5 relative activity over Rd4BB (SEQ ID NO: 15))
14 | B2 | + (0.5 to 1.5 relative activity over Rd4BB (SEQ ID NO: 15))
15 | B3 | + (0.5 to 1.5 relative activity over Rd4BB (SEQ ID NO: 15))
16 | B4 | − (<0.5 relative activity over Rd4BB (SEQ ID NO: 15))
17 | B5 | + (0.5 to 1.5 relative activity over Rd4BB (SEQ ID NO: 15))
18 | B6 | + (0.5 to 1.5 relative activity over Rd4BB (SEQ ID NO: 15))
